From US20120077957A1 (PALATIN TECHNOLOGIES, published 2012)
Numbered stars: 1 amine (or outer) side, 2 acyl side, 3 side chain; on linkers, the order of the positions; unused ones are H or OH. Bridge positions count the residues as written; N and C are the ends. Square brackets hold non-standard residues; d marks the D form. Ser(Bzl) = O-benzyl-serine, O=C([C@H](COCc1ccccc1)N[*:1])[*:2]; Pro(trans-4-NH2) = O=C([C@@H]1C[C@@H](N[*:3])CN1[*:1])[*:2]; Met(O2) = CS(=O)(=O)CC[C@H](N)C(=O)O; Hyp = O=C(O)[C@@H]1C[C@@H](O)CN1; Cit = NC(=O)NCCC[C@H](N)C(=O)O; Orn = NCCC[C@H](N)C(=O)O; Dab = NCC[C@H](N)C(=O)O

B1: Asp...Lys analog of peptide No. 15: Ac-Arg-cyclo(Asp-Cit-D-Phe-Arg-Trp-Lys)-NH2 (peptide)
peptide: RDXFRWK
modifications: N-terminal acetyl; Cit (citrulline) at 3; D-Phe at 4; side-chain lactam Asp2-Lys7; C-terminal amide (-NH2)
B2: Peptide No. 1: Ac-Nle-cyclo(Glu-His-D-Phe-Arg-Trp-Orn)-OH (peptide)
peptide: XEHFRWX
modifications: N-terminal acetyl; Nle at 1; D-Phe at 4; Orn at 7; side-chain lactam Glu2-Orn7; C-terminal -OH

biological target: T1, human melanocortin-4 receptor (recombinant hMC4-R) (human, UniProt P32245 1-332); assay: cell-based or functional assay
T1 sequence (P32245 whole entry): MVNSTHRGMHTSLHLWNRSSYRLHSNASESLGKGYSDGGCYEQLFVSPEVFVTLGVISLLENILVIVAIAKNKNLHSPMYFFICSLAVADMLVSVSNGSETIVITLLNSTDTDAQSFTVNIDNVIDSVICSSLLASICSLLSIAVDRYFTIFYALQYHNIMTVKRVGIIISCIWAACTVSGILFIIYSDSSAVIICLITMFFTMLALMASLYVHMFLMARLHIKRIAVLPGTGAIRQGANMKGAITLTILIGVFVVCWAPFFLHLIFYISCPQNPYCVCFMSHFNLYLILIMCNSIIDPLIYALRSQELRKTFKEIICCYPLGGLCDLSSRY

Emax (%), cAMP	Ec50 (nM), cAMP	Binder
87%		Ac-RE[Cit][dF]RW[Orn]-NH2 (lactam 2-7) [Peptide No. 15: Ac-Arg-cyclo(Glu-Cit-D-Phe-Arg-Trp-Orn)-NH2]
95%	0.4 nM	Ac-RE[Orn][dF]RW[Orn]-NH2 (lactam 2-7) [Peptide No. 8: Ac-Arg-cyclo(Glu-Orn-D-Phe-Arg-Trp-Orn)-NH2]
91%	4 nM	Ac-RD[Dab][dF]RWK-OH (lactam 2-7) [Asp...Lys analog of peptides No. 5 and No. 42: Ac-Arg-cyclo(Asp-Dab-D-Phe-Arg-Trp-Lys)-OH]
69%		B1
97%	0.5 nM	B2
84%	12 nM	Ac-RD[Orn][dF]RWK-OH (lactam 2-7) [Asp...Lys analog of peptide No. 7: Ac-Arg-cyclo(Asp-Orn-D-Phe-Arg-Trp-Lys)-OH]
81%		Ac-REQ[dF]RW[Orn]-OH (lactam 2-7) [Peptide No. 11: Ac-Arg-cyclo(Glu-Gln-D-Phe-Arg-Trp-Orn)-OH]
83%	0.2 nM	Ac-REH[dF]RW[Orn]-NH2 (lactam 2-7) [Peptide No. 4: Ac-Arg-cyclo(Glu-His-D-Phe-Arg-Trp-Orn)-NH2]
83%	0.7 nM	Ac-REH[dF]RW[Orn]-OH (lactam 2-7) [Peptide No. 3: Ac-Arg-cyclo(Glu-His-D-Phe-Arg-Trp-Orn)-OH]
55%		Ac-RE[Ser(Bzl)][dF]RW[Orn]-OH (lactam 2-7) [Peptide No. 17: Ac-Arg-cyclo(Glu-Ser(Bzl)-D-Phe-Arg-Trp-Orn)-OH]
71%	5 nM	Ac-RE[Met(O2)][dF]RW[Orn]-NH2 (lactam 2-7) [Peptide No. 13: Ac-Arg-cyclo(Glu-Met(O2)-D-Phe-Arg-Trp-Orn)-NH2]
104%		Ac-REK[dF]RW[Orn]-NH2 (lactam 2-7) [Peptide No. 16: Ac-Arg-cyclo(Glu-Lys-D-Phe-Arg-Trp-Orn)-NH2]
91%	0.4 nM	Ac-REN[dF]RW[Orn]-NH2 (lactam 2-7) [Peptide No. 34: Ac-Arg-cyclo(Glu-Asn-D-Phe-Arg-Trp-Orn)-NH2]
98%		Ac-RER[dF]RW[Orn]-NH2 (lactam 2-7) [Peptide No. 10: Ac-Arg-cyclo(Glu-Arg-D-Phe-Arg-Trp-Orn)-NH2]
76%	12 nM	Ac-REN[dF]RW[Orn]-OH (lactam 2-7) [Peptide No. 20: Ac-Arg-cyclo(Glu-Asn-D-Phe-Arg-Trp-Orn)-OH]
82%		Ac-RER[dF]RW[Orn]-OH (lactam 2-7) [Peptide No. 9: Ac-Arg-cyclo(Glu-Arg-D-Phe-Arg-Trp-Orn)-OH]
55%		Ac-RE[Pro(trans-4-NH2)][dF]RW[Orn]-NH2 (lactam 2-7) [Peptide No. 32: Ac-Arg-cyclo(Glu-Pro(4R-NH2)-D-Phe-Arg-Trp-Orn)-NH2]
104%		Ac-RE[Hyp][dF]RW[Orn]-NH2 (lactam 2-7) [Peptide No. 14: Ac-Arg-cyclo(Glu-Hyp-D-Phe-Arg-Trp-Orn)-NH2]
94%		Ac-RE[Dab][dF]RW[Orn]-OH (lactam 2-7) [Peptide No. 5: Ac-Arg-cyclo(Glu-Dab-D-Phe-Arg-Trp-Orn)-OH]
83%		Ac-RDH[dF]RWK-NH2 (lactam 2-7) [Asp...Lys analog of peptides No. 4 and No. 38: Ac-Arg-cyclo(Asp-His-D-Phe-Arg-Trp-Lys)-NH2]

biological target: T1, human melanocortin-4 receptor …; assay: cell-based or functional assay; remark: another data set of the same source

Emax (%), cAMP	Ec50 (nM), cAMP	Binder
89%		Ac-[dR][Orn]Q[dF]RWE-NH2 (lactam 2-7) [Peptide No. 45: Ac-D-Arg-cyclo(Orn-Gln-D-Phe-Arg-Trp-Glu)-NH2]
89%		Ac-[dR]DH[dF]RWK-NH2 (lactam 2-7) [Asp...Lys analog of peptide No. 39: Ac-D-Arg-cyclo(Asp-His-D-Phe-Arg-Trp-Lys)-NH2]
100%		Ac-R[Orn][Dab][dF]RWE-OH (lactam 2-7) [Peptide No. 42: Ac-Arg-cyclo(Orn-Dab-D-Phe-Arg-Trp-Glu)-OH]
91%	4 nM	Ac-RD[Dab][dF]RWK-OH (lactam 2-7) [Asp...Lys analog of peptides No. 5 and No. 42: Ac-Arg-cyclo(Asp-Dab-D-Phe-Arg-Trp-Lys)-OH]
83%		Ac-RDH[dF]RWK-NH2 (lactam 2-7) [Asp...Lys analog of peptides No. 4 and No. 38: Ac-Arg-cyclo(Asp-His-D-Phe-Arg-Trp-Lys)-NH2]

biological target: T1, human melanocortin-4 receptor …; assay: competition with labelled NDP-α-MSH ([I125] or Eu), hMC4-R HEK-293 membranes
Procedure: After incubation for 60 minutes at 37° C., the assay mixture was filtered and the membranes washed three times with ice-cold buffer. Filters were dried and counted in a gamma counter for bound radioactivity. […] Maximal specific binding (100%) was defined as the difference in radioactivity (cpm) bound to cell membranes in the absence and presence of 1 μM NDP-α-MSH. […] Ki values for test peptides of the present invention were determined using Graph-Pad Prism® curve-fitting software.
After incubation for 90 minutes at 37° C., the reaction was stopped by filtration over AcroWell 96-well filter plates (Pall Life Sciences). The filter plates were washed 4 times with 200 μL of ice-cold phosphate-buffered saline. DELFIA Enhancement solution (PerkinElmer Life Sciences) was added to each well. The plates were incubated on a shaker for 15 minutes and read at 340 nm excitation and 615 nm emission wavelengths. Each assay was conducted in duplicate and mean values were utilized. Ki values were determined by curve-fitting with Graph-Pad Prism® software using a one-site fixed-slope competition binding model.

Ki	Binder
9 nM	Ac-RE[Orn][dF]RW[Orn]-NH2 (lactam 2-7) [Peptide No. 8: Ac-Arg-cyclo(Glu-Orn-D-Phe-Arg-Trp-Orn)-NH2]
1 nM	Ac-REH[dF]RW[Orn]-NH2 (lactam 2-7) [Peptide No. 4: Ac-Arg-cyclo(Glu-His-D-Phe-Arg-Trp-Orn)-NH2]
24 nM	Ac-REH[dF]RW[Orn]-OH (lactam 2-7) [Peptide No. 3: Ac-Arg-cyclo(Glu-His-D-Phe-Arg-Trp-Orn)-OH]
6 nM	Ac-RE[Ser(Bzl)][dF]RW[Orn]-OH (lactam 2-7) [Peptide No. 17: Ac-Arg-cyclo(Glu-Ser(Bzl)-D-Phe-Arg-Trp-Orn)-OH]
15 nM	Ac-REK[dF]RW[Orn]-NH2 (lactam 2-7) [Peptide No. 16: Ac-Arg-cyclo(Glu-Lys-D-Phe-Arg-Trp-Orn)-NH2]
6 nM	Ac-REN[dF]RW[Orn]-NH2 (lactam 2-7) [Peptide No. 34: Ac-Arg-cyclo(Glu-Asn-D-Phe-Arg-Trp-Orn)-NH2]
167 nM	Ac-REN[dF]RW[Orn]-OH (lactam 2-7) [Peptide No. 20: Ac-Arg-cyclo(Glu-Asn-D-Phe-Arg-Trp-Orn)-OH]
6 nM	Ac-RE[Pro(trans-4-NH2)][dF]RW[Orn]-NH2 (lactam 2-7) [Peptide No. 32: Ac-Arg-cyclo(Glu-Pro(4R-NH2)-D-Phe-Arg-Trp-Orn)-NH2]
